Experimental data from US20230272028.

Key:
[1] = molecular target: T1, CTSL1_1 FRET substrate (ALFKSSFP)
T1 chain: ALFKSSFP

[2] = molecular target: T2, CTSL1_2 8-mer FRET substrate Mca-ALFFSSPPK-Dnp
T2 chain: ALFFSSPPK

B1: Cathepsin K (CTSK) (protein)
chain: APDSVDYRKKGYVTPVKNQGQCGSCWAFSSVGALEGQLKKKTGKLLNLSPQNLVDCVSENDGCGGGYMTNAFQYVQKNRGIDSEDAYPYVGQEESCMYNPTGKAAKCRGYREIPEGNEKALKRAVARVGPVSVAIDASLTSFQFYSKGVYYDESCNSDNLNHAVLAVGYGIQKGNKHWIIKNSWGENWGNKGYILMARNKNNACGIANLASFPKM
FRET substrate cleavage, specific activity [1]: measurably cleaved by CTSK but at a 15× lower level than the CTSL1_1 substrate | FRET substrate cleavage, specific activity [2]: measurably cleaved by CTSK but at a 15× lower level than the CTSL1_1 substrate
